Laboratory results taken from article PMC8373988 (2021).

Target: biotinylated-AviTag-haBiP^T229A-V461F (residues 27–635), unmodified (Chinese hamster, UniProt G3I8R9 27-635, T229A | V461F, biotin on the N-terminal Avi-tag)
Experiment: BLI; ATP-bound BiP

Chain of biotinylated-AviTag-haBiP^T229A-V461F (residues 27–635), unmodified (G3I8R9 27-635 T229A/V461F): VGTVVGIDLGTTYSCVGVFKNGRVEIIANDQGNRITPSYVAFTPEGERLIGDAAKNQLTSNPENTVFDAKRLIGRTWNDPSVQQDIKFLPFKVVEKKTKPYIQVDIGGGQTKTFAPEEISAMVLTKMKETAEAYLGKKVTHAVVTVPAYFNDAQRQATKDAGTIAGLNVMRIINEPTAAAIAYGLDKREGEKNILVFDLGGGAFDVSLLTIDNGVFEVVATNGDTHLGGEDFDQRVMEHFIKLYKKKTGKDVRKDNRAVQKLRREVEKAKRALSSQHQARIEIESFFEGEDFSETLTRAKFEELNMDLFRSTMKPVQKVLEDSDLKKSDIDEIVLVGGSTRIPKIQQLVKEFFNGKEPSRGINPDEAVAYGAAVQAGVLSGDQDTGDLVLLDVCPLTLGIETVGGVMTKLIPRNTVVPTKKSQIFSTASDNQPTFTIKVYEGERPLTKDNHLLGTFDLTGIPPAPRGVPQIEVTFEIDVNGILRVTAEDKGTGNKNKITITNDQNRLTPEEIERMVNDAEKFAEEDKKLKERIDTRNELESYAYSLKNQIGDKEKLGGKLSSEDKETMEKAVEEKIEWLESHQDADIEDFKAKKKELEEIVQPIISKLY

koff: 0.176 s⁻¹
B1: isolated TPR domain of FICD (domain or fragment)
chain: LEARAALNQALEMKRQGKREKAQKLFMHALKMDPDFVDALTEFGIFSEEDKDIIQADYLYTRALTISPYH
